Results reported in US20030215880A1 (Scripps Research, published 2003).

How the values were obtained:
[1] = target: T1, PrP^c, cellular isoform of the mouse prion protein (mouse, UniProt P04925 23-230); assay: immunoprecipitation from normal mouse brain homogenate, western blot
[2] = target: T1, PrP^c, cellular isoform of the mouse …; assay: immunoprecipitation from normal mouse brain homogenate, positive control

T1 sequence (P04925 23-230 limits assumed): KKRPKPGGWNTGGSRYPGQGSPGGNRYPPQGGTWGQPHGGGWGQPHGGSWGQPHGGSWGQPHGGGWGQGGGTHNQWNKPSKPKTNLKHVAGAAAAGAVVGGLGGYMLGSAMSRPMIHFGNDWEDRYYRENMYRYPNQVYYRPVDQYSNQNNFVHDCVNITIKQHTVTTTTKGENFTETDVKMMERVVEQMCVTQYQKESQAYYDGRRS

B1: Fab b12 (Fab, V domains shown)
VH: QVQLVQSGAEVKKPGASVKVSCQASGYRFSNFVIHWVRQAPGQRFEWMGWINPYNGNKEFSAKFQDRVTFTADTSANTAYMELRSLRSADTAVYYCARVGPYSWDDSPQDNYYMDVWGKGTTVIVSS
VL: EIVLTQSPGTLSLSPGERATFSCRSSHSIRSRRVAWYQHKPGQAPRLVIHGVSNRASGISDRFSGSGSGTDFTLTITRVEPEDFALYYCQVYGASSYTFGQGTKLERKR
binding result [1]: no binding

B2: IgG1 b12 (antibody, V domains shown)
VH: B1 VH
VL: B1 VL
notes: Human IgG1
binding result [1]: no binding

B3: Fab D13 (Fab, V domains shown)
VH: VQLLEQSGAELVKPGASVKLSCTTSGLNIEDYYIHWVKQRPEQGLEWIGRIDPENGETLYAPEFQGKATITADTSSNTVYLQLRSLTSEDTAIYYCGRFDGNGWYLDVWGAGTTVTVSS
VL: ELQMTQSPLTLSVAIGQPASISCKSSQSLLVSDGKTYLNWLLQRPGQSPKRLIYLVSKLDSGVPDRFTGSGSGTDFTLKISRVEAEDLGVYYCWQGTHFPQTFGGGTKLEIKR
binding result [2]: binds
